Data: the nanobody polyreactivity screen of Harvey et al. (2022)

assay: yeast display, Sf9 membrane polyspecificity reagent, FACS + sequencing; frameworks hold sequencing errors
In short: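 Synthetic nanobody libraries on Saccharomyces cerevisiae BJ5465 were galactose-induced for 36–48 hours, stained 1 hour at 4 °C with 10% biotinylated, detergent-solubilized Sf9 membrane reagent and enriched on streptavidin microbeads. FACS then separated cells into low and high (top ~1%) gates by anti-HA (expression) and streptavidin (reagent binding) fluorescence. Genes were colony-PCR amplified, MiSeq 2 × 250 sequenced and CDR-length filtered. A clone's polyreactivity label is that of its gate of origin.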

Sequence	polyreactivity (PSR sort gate)
QVQLVESGGGLVQAGGSLRLSCAASGFTFGGYAMGWYIQAPGKERELVSAISGSGGRTYYADSVKGRFTISRDNAKNTVYLQMNSLKPEDTAVYYCATDGYWQSNGAFYYVARHGGYCGQGTQVTVSS	low polyreactivity
QVHLVESGGGLVQAGGSLRLICAASGFIFRQYAMGWYRQAPGKERELVAAISYRGASTYYADSVKGRFTISRDNAKNTVYLQMNSLKPEDTAVYYCADRYYNPWARVSGYDYWGQGTQVTVSS	high polyreactivity
QVQLVESGGGLVQAGGSLRLSCAASGRTIIFNAMGWYRPAPGKERELVAAISSGGGTNYADSVKGRFTISRDNAKNTVYLQMNSLKPEDTAVYYCAADPRDHYSYVYDGYKYDYWGQGTQVTVSS	low polyreactivity
QVQLVESGGGLVQAGGSLRLSCAASGRTFRKYAMGWSRQAPGKERELVAAINRGGTTKYADSVKGRFTISRDNAKNTVYLQMNSLKPEDTAVYYCNAAYGGVFFYAYDYWGQGTQVTVSS	low polyreactivity
QVQLVESGGGLVQAGGSLRLSCAASGSIFRQYAMGWYRQAPGKERELVATISRSGGSTYYADSVKGRFTISRDNAKNTVYLQMNSLKPEDTAVYYCAASRYNKSYREWWVGSWGQGTQVTVSS	high polyreactivity
QVQLVESGGGLVQAGGSLRLSCAASGFIFLQYVMGWYRQAPGKERELVAAITSGGSTYYADSVKGRFTISRDNAKNTVYLQMNSLKPEDTAVYFCATDVADNTFYALYGYDYWGQGTQVTVSS	low polyreactivity
QVQLEEAGGGLVQAGGSLRLSCAASARIIARYAMGWYRQAPGKERELVAAITGSGGSTYYADSVKGLFTISRDHANNTVYLQMNCLKPEDTAVYYCAARSVYTYYRLDYWGQGTQVTVSS	high polyreactivity
QVQLVESGGGLVQAGGSLRLSCAASGRTFFPNAMGWYRPAPGKERELVAAITWRGGSTYYADSVKGRFTISRDNAKNTVYLQMNSLKPEDTAVYYCAARDNPRWPRYYRGRTYDYWGQGTQVTVSS	high polyreactivity
QVQLEESGGGLVQAGGSLRLSCAASGNIFWGNAMGWYRQAPGKEMELVAAITSIDSSTYYADSVKGRFTISRDNAKNTVYLQMNSLKPEDTAVYYCAADGDWYGYIWQSDDGYDSWGQGTQVTVSS	low polyreactivity
QVQLVESGGGLVQAGGSLRLTCAASGRTFHAYVMGWYRQAPGKERELVADISSGGDTYADSVKGRFTISRDNAKNTVYLQMNSLKPEDTAVYYCAVDVIQDESGYWGQGTQVTVSS	low polyreactivity
QVQHLETGGGLDQAGGSLRLSCAASVRTFGANAMAWYRQAPGNERALVAAITGRGGSTYYADSVKGRFTFSRDNAKNTVYLQMNSLKPEDTAVYYCAKPFKRGYGYDYWGQGTQVTVSS	low polyreactivity
QDQLVESGGGLVQAGGSLRLSCAASGRIIRAYAMGWYRQAPGKERELVAAISGGSNTNYADSVKGRFTISRDNAKNTVYLQMNSLKPEDTAVYYCAADAGYWESLWYPYGFYWGQGTQVTVSS	low polyreactivity
QVQLVESGGGLVQAGGSLRLSCAASGGIFTGYAMGWYRQAPGKERELVASITISGGRTYYADSVKGRFTISRDNAKNTVYLQINSLKPEDTAVYYCAATIPWYKYRYYYWGQGTQVTVSS	high polyreactivity
QVQLVESGGGLVQAGGSLRLSCAASGRTFRVYAMGWYRQAPGKEREFVAAISYSGGRTNYADSVKGRFTISRDNAKNTVYLQMNSLKPEDTAVYYCARTKQEYTFGQFYLGDYWGQGTQVTVSS	low polyreactivity
QVQLVESGGGLVQAGGSLRLSCAASGSTFYGYAMGWYRQAPGKERELVAVISRSGGSTYYADSVKGRFTISRDNAKNTVYLQMNILKPEDTAVYYCNARWSFSYTVWVDSYWGLDDYWGQGTQVTVSS	high polyreactivity
QVQLVESGGGLVQAGGSLRLSCAASGRTFYGYAMGWYRQAPGKERELVASISRDGSTNDADSVKGRFTISRDNAKNTVYLQMNRLKPEDTEVYYCAADIWYYRYPIYYYSYDYWGQGTQVTVSS	low polyreactivity

Sequence	polyreactivity (PSR sort gate)
QVQLVESGGGLVQAGGSLRLSCAASGFTFVSYAMGWYRQAPGKERELVAVIDNSDGDTYYADSVKGRFTISRDNAKNTVYLQMNSLKPEDTAVYYCAADAVIEWTDWYSAWWYYYWGQGTQVTVSS	low polyreactivity
QVQIVESGGGLVQAGRSLRLSCAASGIIFDHYAMGWYRQAPGKERELVAAITTGGGNTYYADSVKGRFTISRDNAKNTVYLQMNCLKPEDTAVYYCNDDGLWGRRWGDYYGYDYWGQGTQVTVSS	low polyreactivity
QVQLQESGAGLVQAGGSLRLTCAASGSIFLFYTMGWYRQAPVKEREFVAGITLGTTTYNADSVKGRFTISRDNVKNTVYLQMNSLKPEDTAVYYCAVAVGHYTEFWYWGQGTQVTMSS	high polyreactivity
QVQLVESGGGLVQAGCSLRLSCAASGSIFFSYAMGWYRQAPGKEREFVAAINSDDASTYADSVKGRFTISRDNAKNTVYLQKNSLNPEDTAVYYCAASFLWSWYDYWGQGTHVTVSS	low polyreactivity
QVPLVESGGGLVQAGGSLRLSCAASGRIFKSNAMGWYRQAPGKERELVAAISYSGGSTYYADSVKGRFTISRDNAKKTVYLQMNRLKPEDTAVYYCNKYFRREYDYWGQGTQVTVSS	high polyreactivity
QFQLVESGGGLVQAGGSLRLSCAASGFIFSNNAMGWYRQAPGKDRELVAAISKSGGGTSYADSVKGRFTISRDNAKNTVYLQMNSLKPDDTAVYYCAKEWRKKTDYDYWGQGTQVTVSS	high polyreactivity
QVQLVESGGGLVQAGGSLRLSCAASGSIFYPYDMGWYRQAPGKERELVATINWSSGRTNYADSVKGRFTISRDNAKNTVYLQMNSLKPEDTAVYYCNAVTYSRRYAYYYWGQATQVTVSS	high polyreactivity
QVQLVESGGCLVQAGGSLRLISAASGSTFQRYAIGWYRQAPGKERELVAAITWSNGSTYYADSVKGRFTISRDNAKNTVYLQMISLKPEDTAVYYCAAEVHFGGDYWGQGTQVTVSS	low polyreactivity
QVQLVESGGGLVQEGGSLRLSCAASGYIFWSNTMGWYRQAPGKERELVAAISQSTASTYYADSVKGRFTISRDNAKNTVYLQMNSLKPDDTAVYYCAADGWSRSWGYWVHYGYWGQGTQVTVSS	low polyreactivity
QVQLVESGGGLVQAGGSLRLSCAASGSIFTINAMGWYSQAPGKERELVAALTSGGSTSYADSVKGRFTISRDIAKNTVYLQMNSLKPEDTAVYYCAADAKRFYPYRWRLYYWGQGTQVTVSS	high polyreactivity
QVQHVESGGCLVQAGGSLRLSCAASGYTFRYYAMGWYRQAPGKERELVAAINWSGCSTYYADSVKGRFTISRDNAKNTVYLHMNSLKPEDTAVYYCAADPDGDVDIDYDYWGQGTQVTVSS	low polyreactivity
QVQLVESGGGLVQAGGSLRLSCAASGIIFRYYALGWYRKAPRKERELVAAINWRGGRTYYADSVKGRFTISRDNAKNTVYLQMNSLKPEDTAVYYCAAYIYYPYRNDYWGQGTQVTVSS	high polyreactivity
QVQLLESGGGLVQAGGSLRLSCAASVSTFLYYTMGWYRQATGKQRELVAAISDDGSTSYADSVKGRFTISRDNAKITVYLQMNSLKPEDTAVYYCAARFYHNRYTFYDFYTLYPYYYWGQGTQVTVSS	low polyreactivity
QVQLVESGGGLVHAGGSLRLSCAASGSTFRLYSMGWYRQAPGKERELVAAISSNGVRTYYADSVKGRFTISRDNAKNTVYLQMNSLKPEDTAVYYCAARVYPAYPRGYDYWGQGTQVTVSS	high polyreactivity
QVQLVESGGGLVQAGGSLRLSCAASGRILLYNAMGWYRQAPGKERELVAAISRSGGSTYYADSVKGRFTISRDNAKNTVYLQMNSLKPEDTAVYYCAAQHGYPRYYYWGQGTQVTVSS	high polyreactivity
